Assays:
soluble human CD154 = biological target: T1, soluble human CD154 (human, UniProt P29965 113-261); assay: ELISA of free and total sCD154 in platelet poor plasma of dosed human participants
T1 construct: also called sCD154; shCD154
T1 sequence: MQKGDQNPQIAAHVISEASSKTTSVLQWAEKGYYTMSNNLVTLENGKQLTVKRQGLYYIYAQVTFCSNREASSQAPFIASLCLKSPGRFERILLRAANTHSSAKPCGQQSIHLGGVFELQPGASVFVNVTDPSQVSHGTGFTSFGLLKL
Procedure: Mean free and total soluble CD154 (sCD154) concentrations were determined by ELISA in platelet poor plasma samples obtained from the participants administered C4LB231 according to the study described in Example 2. Free sCD154 concentration remained undetectable until 14 days after dosing indicating suppression of the target of […].

[1] = biological target: T2, rhesus monkey soluble CD154 (rhesus monkey, UniProt P63304 113-261, limits assumed); assay: free and total sCD154 in platelet poor plasma of rhesus monkeys dosed IV or SC (3-month study)
T2 construct: Endogenous plasma protein measured in dosed animals; also called sCD154; free sCD154
T2 sequence (looked up): T1 sequence
Procedure: Rhesus monkeys were administered the anti-CD154 antibody C4LB231 intravenously (IV) or subcutaneously (SC) once weekly for 13 weeks. The control vehicle was 0.9% sterile saline (NaCl). Animals were dosed by IV or SC injection as described above for the 8-week study on days 1, 8, 15, 22, 29, 36, 43, 50, 57, 64, 71, 78, and 85 for a total of 13 doses. On days 29, 57, and 155 (recovery study animals only) animals received an intramuscular injection of a 1 mg dose of KLH antigen to the left thigh for a KLH-antigen challenge study. Blood samples were collected from the animals and evaluated as described below.
Free and total soluble CD154 (sCD154) were assessed in platelet poor plasma samples. […] The extent of reduction was greater at the higher dose levels. A dose-dependent decrease in free sCD154 coupled with dose-dependent increase in total sCD154 indicated good target engagement in plasma.

B1: anti-CD154 antibody C4LB231 (antibody, human IgG1, kappa, V domains shown)
VH: QVQLVQSGAEVKKPGSSVKVSCKASGGTFSSYGISWVRQAPGQGLEWMGWISPIFGNTNYAQKFQGRVTITADESTSTAYMELSSLRSEDTAVYYCARSRYYGDLDYWGQGTLVTVSS
VL: DIQMTQSPSSLSASVGDRVTITCRASQSISSYLNWYQQKPGKAPKLLIYYANSLQSGVPSRFSGSGSGTDFTLTISSLQPEDFATYYCQQSDSIPWTFGQGTKVEIKR
notes: Human IgG1σ mAb (Fc-silencing mutations L234A, L235A, G237A, P238S, H268A, A330S, P331S); also called C4BL231; C4BL231 (Fc silent)
Question: Does B1 bind (soluble human CD154)?
Answer: Result: binds

Question: Does B1 bind [1]?
Answer: Result: binds

Reference: patent US20210317220A1 (Janssen / Centocor, published 2021)
